From the nanobody polyreactivity screen of Harvey et al. (2022)

assay: yeast display, Sf9 membrane polyspecificity reagent, FACS + sequencing; frameworks hold sequencing errors
Outline: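 Nanobodies from a synthetic yeast display library (Saccharomyces cerevisiae BJ5465), induced 36–48 hours with galactose, were stained 1 hour at 4 °C with 10% biotinylated, detergent-solubilized Sf9 membrane reagent, enriched on streptavidin microbeads, then FACS-sorted. Anti-HA (expression) and streptavidin (reagent binding) fluorescence set low and high (top ~1%) gates. Polyreactivity labels come from the gate of origin. Genes were colony-PCR amplified, MiSeq 2 × 250 sequenced and filtered by CDR length.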

Sequence | polyreactivity (PSR sort gate)
QVQLVESGGGLVQAGGSLRLSCAASGSIFYSNAMGWYRQAPGKERELVAAISVSGVSTYYADSVKGRFTISRDNAKNTVYLQMNSLKPEDTAVYYCAADTGYRYDDYYWWGGEYDYWGQGTQVTVSS | low polyreactivity
QVQLVESGGGLVQAGGSLRLSCAASGRTLNYNAMGWYRQAPGKERELVAAITSSGRTYYADSVKGRFTISRDNAKNTVFLQMNSLKPEDTAVYYCAASPYGRSILVRYGYWGQGTQVTVSS | high polyreactivity
QVQLVESGGGLVQAGGSLRLSCAASGSIFSAYAMGWYRQAPGKERELVAAISYGGGSTYYADSVKGRFTISRDNAKNTVYLQMNSLKAEDTAVYYCAAASSGEYGYWGQGTQVTVSS | low polyreactivity
QVQLVESGGGLVQAGGSLRLSCAASGSTFSYYAMGWYRQAPGKERELVAANTSGCRSKYADSVKGRFTISRDNAKNTVYLQINSLKPEDTAVYYCAKRIENFSGSLAGRWYDYWGQGTQVNVSS | high polyreactivity
QVHLVDSGGGLVQAGCSLPLSCAASGRTFLAYAMGWYRQEPGKERQLVAAISGSGGRSYYADSVKGRFTISRDNAMNTVYLQMNSLKPEDTAVYYCAANVVRWWGDGDYWGQGTQVTVSS | high polyreactivity
QVQLVESGGGLVQAGGSLRLSCAASGRIFSVYVMGWYRQAPGKERELVAAITRSGGRTYYADSVKGRFTISRDNAKNTVYLQMNSLKPDDTAVYYCAARVKGYAYNYWGQGTQVTVSS | high polyreactivity
QVQLVESGGGLVQAGGSLRLSCAASGITFGTNAMGWYRQAPGKERELVAAISGGGGSTYYADSVKGRFTISRDNAKYTVYLQMTCLKPEDTAFYYCAARRFKRSSLSFYVGYYYWGQGTQVTVSS | high polyreactivity
QVQLVESGGGLVQAGGSLRLSCAASGIIFKVNAMGWYRQAPGKERELVAAISRRGGITYYADSVKGRFTISRDNAKNTVYLQMNSLKPEDSAVYYCAAAYSDYRFSTRYPYNYWGQGTQVTVSS | high polyreactivity
QVQLVESGGGEVQAGGSLRLSCAASGIIFVDYVLGWYRQAPGTEMELVASIDGSGGSTNDADSVKGRFTISRDNAKNTVYLQLNRLKPEDTAVYYCTADNILYWSTLDYWGQGTHVTVSS | low polyreactivity
QVQLVESGGGLVQAGGSLRLSCAASGRTSRFYAMGWYRQAPGKERELVARITTRGGSTYYADSVKGRFTISRDNAKNTVYLQRNSLKPEDTAVYYCNTAFWYSRSMDYWGQGTQVTVSS | high polyreactivity
QVQLVESGGGLVQAGGSLRLSCAASGIIFSYYAMGWYIQAPGKERELVAVINSGGSTYYADSVKGRFTISRDNAKNTVYLQMNSLKPEDTAVYYCAATIFVKFYYWGQGTQVTVSS | low polyreactivity
QVQLVESGGGLVQAGGSLRLSCAASGRTFFYYKMGLSRQAPGKESELVATISWRGGSTYYADSVKGRFTISRDNAKNTVYLHINSLNPEDTSVFYCAARYRSRFDSWGQGSQVTVSS | high polyreactivity
QVQLVESGGGLVQAGGSLRLSCAASGGTFSSYAMGWYRPAPGKERELVADITRRGGSTYYADSVKGRFTISRDNAKNTVYLQMNSLKPEDTAVYYCAKDYFRRGLWGFSIYGYWGQGTQVTVSS | high polyreactivity
QVQLVESGGGLVQAGGSLRLSCAASGRIFRYNTMGWYRQAPGKEREFVAAITQRGVNTYYADSVKGRFTISRDNAKNTVYLQLNSLKPEDTAVYYCNAKRYSYWIYRAYDYWGQGTQVTVSS | low polyreactivity
QVQLVESGGGLVQAGGSLRLSCAASGRTVSFYDMGWYRQAPGKERELVAAINSGSSTYYADSVKGRCTISRDNANTTVYLQMNSLKPEDTAVYYCADEPYFWWQNEYWGQGTQVTVSS | high polyreactivity
QVQLVESGGGLVQAGGSLRLSCAASGRIFGYYAMGWYIQAHGKERELVAAINSGSRTYYADSVKGRFTISRDNAKNTVYLQMNSLKPEDTAVYYCAARVRYPPYRSSDGQRGGYWGQGTQVTVSS | high polyreactivity
QDQLVESGGGLVQAGGSLRLTCAASGSTFNYYAMGWYRQAPGKERELVAAISRSGGRTYYADSVKGRFTISRDNAKTTVYLQMNSLKEEDTAVYYCAAQVLTTGGEGGYWGQGTQVTVSS | high polyreactivity
QVQLVESGGGLVQAGGSLRLSCAASGIIFNDYAMGWYRQAPGKERELVAAISWSGGRTYYADSVKGRFTISRDNAKNTVYLQMNSLKPEDTAVYYCNARARQYSAFPVVERNYWGQGTQVTVSS | high polyreactivity
QVQLVESGGGLVQAGGSLRLSCAASGRIFSYYAMGWYRQAPGKERELVAAISRGGTTNYADSVKGRFTISRDNAKNTVYLQMNSLKPEDTAVYYCNRDFHLIHLSSARLDYWGQGTQVTVSS | low polyreactivity
QVQLVESGGGLVQAGGSLRLSCAASGIIFLSYAMGWYRQAPGKERELVATITRSGGSTYYADSVEGRFTISRDNAKNTVYLQMNSLKPEDTAVYYCARYWRTSGVRMDYWGQGTQVTVSS | high polyreactivity
QVQLVESGGGLVQAGGRLRLSCAASGRTFKLYAMGWYRQAPGKERELVAAISGRGGSTYYADSVKGRFTISRDNAKNTVYLQMNSLKPEDTAVYYCNWYGKYEYWGQGTQVTVSS | high polyreactivity
QVQLVESGGGLVQAGGSLRLICAASGRIFSGNTMGWYRQAPGKERELVAAISKSGGRTYYADSVKGRFTISRDNAKYTFYLQMNSLKPEDTAVYYCNADYRSHYLYDYWGQGTQVTVSS | low polyreactivity

Sequence | polyreactivity (PSR sort gate)
QVQLVESGGGLVQAGGSLRLSCAASGSIFPTNAMGWYRQAPGKERELVAAITSTAGSTYYADSVKGRFTISRDNAKNSVYLQMNSLKPEDTAVYYCAATYKVGVKSWYDYWGQGTQVTVSS | high polyreactivity
KVQLVESGGGLVQAGGSLRLSCAASGRIFLPYAMGWYRQAPGKEREFVAAITWGAGTTYYADSVKGRFTISRDNAKNTVYLQMNSLKPEDTAVYYCAAEYRVLSWTYGYWGQGTQVTVSS | high polyreactivity
QVQLVESGGGLVQAGGSLRLSCAASGSIFSYYAMGWYRQAPGKERELVAAISKRGASTYYADSVKGRFTISRDNAKNTVYLQMNSLKPEDTAVYYCAAYRQGSAYDYWGQGTQVTVSS | high polyreactivity
QVQLVESGGGLVQAGGSLRLSGAASGFIFSYYAMGWYRQAPGKERELVAAITSGGSTNYADSVKGRFTISRDNAKNTVYLQMNSLKPEDTAVYYCNALYHWGYPHEYNYWGQGTQVTVSS | low polyreactivity
QVQLVESGGGLVQAGGSLRLSCAASGLTFSVYAMGWYREAPGKERELVAGITSSVGDTYYADSVKGRFTISRDNAKNTVYLQMNSLKPEDTAVYYCNAKYRTFVSKHDYWGQGTQLTVSS | low polyreactivity
QVQLVESGGGLVQAGCSLRLSCAASGSNFYRNSMRWYRQAPGKERELVAGITTRGGSTYYADSVKGRFTISRDNAKNTVYLQMNSLKPEDTEVYYCNARSYTGSYFKYYYWGQGTQVTVSS | high polyreactivity
QVQLVESGGGLVQAGGSLRLICAASGRTFGRYAMGWYRQAPGKERELVADIDYGGGSTYYADSEKGRFTISRDNAKNTVYLQMNSLKPEDTAVYYCNARRDIGWGYHMDYWGQGTQVTVSS | high polyreactivity
QVQLVESGGGLVQAGGSLRLSCAASGRMFTHNVMGWYRQAPGKERELVAAISASGGSTYYADSVKGRFTISRDNAKNTVYLQMNSLKPEDTAVYYCNAGDYRTFYRRFDYWGQGTQVTVSS | low polyreactivity
QVQLVESGGGLVQAGGSLRLSCAASGRIFVSYAMGWYRQAPGKERELVAGISSSGGSTYYADSVKGRFTISRDNAKNTVYLQMNSLKPEDTAVYYCNTDQRSRMDYWGQGTQVTVSS | low polyreactivity
QVQLVESGGGLVQAGGSLRLRCAASGSIFYRNAMGWYRQAPGKERELVASITSGGRTNYADSLKGRFTISRDNAKNTVYLQMNSLKPEDTAVYYCAVQYHAASDHSYWGQGTQVTVSS | low polyreactivity
QVQLVESGGGLVQAGGSLRLSCAASGSTFGRNAMGWYRQAPGKERELVAAISKTGGSTYYADSVKGRFTISRDTAKNTVYLQMNSLKPEDTAVYYCAARIRGFRTYYYWGQGTQVTVSS | high polyreactivity
QDQLVESGGGLVQAGGSLRLSCAASGRILINNAMVWYRQAPGKERELVARITRGGRTNYADSVNGRFTISRDNPKNTDYFQMYCPKPVDTAVYDCNAEYVTPYYYGFGAKRDYWGQGTQVTVSS | low polyreactivity
QVQLVESGGGLVQAGGSLRLSCAASGFTFALYAMGWYRQAPGKERELVAAITKGGGSTYYADSVKGRFTISRDNAKITVYLQMNSLKPEDTAVYYCAARGRYSAPDYGYWGQGTQVTVSS | high polyreactivity
QVQLVESGGGLVQAGGSLRLSCAASGRIFYSYAMGWYREAPGKERELVAAIDESDGSTYYADSVKGRFTISRDNAKNTVYLQMNSLKQEDTADYYCNADLTLGGEFDYWGHGTQVTVSS | low polyreactivity
QVQLVESGGGLVQAGGSLRLSCAASGSTFYYYVRGWYRQAPGKERELVAAINSGGSTYYADSVKGRFTISRDNAKNTVYLQMNSLKPEDTAVYYCAKSWSYWYQYYYWGQGSQVTVSS | low polyreactivity
QVQLVESGGGLVQAGGSLRLSCAASGYTFYKNTMGWYRQAPGKERELVARISRSGGSTYYADSVKGRFTISRDNAKNTVYLQMNSLKPEDTAVYYCAVRQGYRSGIYEYDYWGQGTQVTVSS | high polyreactivity
QVQLVESGGGLVQAGGSLRLSCAASGFIIADYTMGWYRQAPGKERELVAAITRSGDSTYYADSVKGRFTISRDNAKNTVYLQMNSLKPEDTAVYYCNAVNDWYYAYYGVTSFRSYDYWGQGTQVTVSS | low polyreactivity
QVQLVESGGGLVQAGGSLRLSCAASGFTFGGYAMGWYRQAPGKERELVAAIRASGGSTYYADSVKGRFTISRDNAKNTVYLQMNSLKPEDTAVYYCNADIWYKTYDYWGQGTQVTVSS | low polyreactivity
QVQLVESGGGLVQAGGSLRLSCAASGSIFARNAMGWYRQAPGKERELVAAITWGGGITYYADSVKGRFTISRDNAKNTVYLQMNSLKPEDTAVYYCATDGYSYFTDRLDYWGQGTQVTVSS | low polyreactivity
QVQLVESGGGLVQAGGSLRLSCAASGGTFLRNAMGWYRQAPGKERELVAAISARGGSTRYADSVKGRFTISRDNAKNTVYLQMNSLKPEDTAVYYCDATSSHHRRMEYWGQGTQVTVSS | high polyreactivity
QVQLVESGGGLVQAGGSLRLSCAASGSIFYVNAMGWYRQAPGKESELVAAISFSGGTTYYADSVKGRFTISRDNAKNTVYLQMNSLKPEDTAVYYCNTPSSREMDYWGQGTQVTVSS | low polyreactivity
